Data reported in patent publication US20110311522A1.

What was measured:
Test in all cases: cell-based or functional assay
[1] = molecular target: hemagglutinin (HA) of H5N1 virus strain A1 (H5N1 avian influenza virus, strain A1)
[2] = molecular target: hemagglutinin (HA) of H5N1 virus strain A2 (H5N1 avian influenza virus, strain A2)
[3] = molecular target: hemagglutinin (HA) of H5N1 virus strain A3 (H5N1 avian influenza virus, strain A3)
[4] = molecular target: hemagglutinin (HA) of H5N1 virus strain A6 (H5N1 avian influenza virus, strain A6)
[5] = molecular target: hemagglutinin (HA) of H5N1 virus strain A7 (H5N1 avian influenza virus, strain A7)
[6] = molecular target: hemagglutinin (HA) of H5N1 virus strain A8 (H5N1 avian influenza virus, strain A8)
[7] = molecular target: hemagglutinin (HA) of H5N1 virus strain B1 (H5N1 avian influenza virus, strain B1)
[8] = molecular target: hemagglutinin (HA) of H5N1 virus strain B3 (H5N1 avian influenza virus, strain B3)
[9] = molecular target: hemagglutinin (HA) of H5N1 virus strain B4 (H5N1 avian influenza virus, strain B4)
[10] = molecular target: hemagglutinin (HA) of H5N1 virus strain B6 (H5N1 avian influenza virus, strain B6)
[11] = molecular target: hemagglutinin (HA) of H5N1 virus strain B7 (H5N1 avian influenza virus, strain B7)
[12] = molecular target: hemagglutinin (HA) of H5N1 virus strain B8 (H5N1 avian influenza virus, strain B8)
[13] = molecular target: hemagglutinin (HA) of H5N1 virus strain C2 (H5N1 avian influenza virus, strain C2)
[14] = molecular target: hemagglutinin (HA) of H5N1 virus strain C3 (H5N1 avian influenza virus, strain C3)
[15] = molecular target: hemagglutinin (HA) of H5N1 virus strain D1 (H5N1 avian influenza virus, strain D1)
[16] = molecular target: hemagglutinin (HA) of H5N1 virus strain D2 (H5N1 avian influenza virus, strain D2)
[17] = molecular target: hemagglutinin (HA) of H5N1 virus strain D3 (H5N1 avian influenza virus, strain D3)
[18] = molecular target: hemagglutinin (HA) of H5N1 virus strain E1 (H5N1 avian influenza virus, strain E1)
[19] = molecular target: hemagglutinin (HA) of H5N1 virus strain E2 (H5N1 avian influenza virus, strain E2)
[20] = molecular target: hemagglutinin (HA) of H5N1 virus strain F2 (H5N1 avian influenza virus, strain F2)
[21] = molecular target: hemagglutinin (HA) of H5N1 virus strain F3 (H5N1 avian influenza virus, strain F3)
[22] = molecular target: hemagglutinin (HA) of H5N1 virus strain G1 (H5N1 avian influenza virus, strain G1)
[23] = molecular target: hemagglutinin (HA) of H5N1 virus strain H2 (H5N1 avian influenza virus, strain H2)

B1: 13D4 chimeric antibody LV (antibody, V domains shown)
VH: QVQLQQSGAELMKPGASVKISCKATGYTFSGHWIEWVKQRPGHGLEWIGEILPGSGNIHYNEKFKGKATFAADTSSNTAYMQLSSLTSEDSAVYYCARLGTTAVERDWYFDVWGQGTLVTVSS
VL: DIVMTQSQKFMSASVGDRVSVTCKASQNVGTHLAWYQQKPGQSPKALIYSASYRYSGVPDRFTGSGSGTDFTLTISNVQSGDLADYFCQQYNNFPLTFGAGTKLEIKR
In the case of B1, the HI titer (hemagglutinin inhibition assay) (n (HI titer = 2^n)) [1] is reported as > 8, the HI titer (hemagglutinin inhibition assay) (n (HI titer = 2^n)) [2] is reported as 7 and the HI titer (hemagglutinin inhibition assay) (n (HI titer = 2^n)) [3] is reported as 6. For the same binder, the HI titer (hemagglutinin inhibition assay) (n (HI titer = 2^n)) [4] was 6.5, the HI titer (hemagglutinin inhibition assay) (n (HI titer = 2^n)) [5] was 4 and the HI titer (hemagglutinin inhibition assay) (n (HI titer = 2^n)) [6] was 7. For the same binder, the HI titer (hemagglutinin inhibition assay) (n (HI titer = 2^n)) [7] was > 8, the HI titer (hemagglutinin inhibition assay) (n (HI titer = 2^n)) [8] was 2 and the HI titer (hemagglutinin inhibition assay) (n (HI titer = 2^n)) [9] was 4. For the same binder, the HI titer (hemagglutinin inhibition assay) (n (HI titer = 2^n)) [10] was > 8, the HI titer (hemagglutinin inhibition assay) (n (HI titer = 2^n)) [11] was 6 and the HI titer (hemagglutinin inhibition assay) (n (HI titer = 2^n)) [12] was 4. For the same binder, the HI titer (hemagglutinin inhibition assay) (n (HI titer = 2^n)) [13] was 3, the HI titer (hemagglutinin inhibition assay) (n (HI titer = 2^n)) [14] was 4 and the HI titer (hemagglutinin inhibition assay) (n (HI titer = 2^n)) [15] was 4. It also gave an HI titer (hemagglutinin inhibition assay) (n (HI titer = 2^n)) [16] of 4, an HI titer (hemagglutinin inhibition assay) (n (HI titer = 2^n)) [17] of 4 and an HI titer (hemagglutinin inhibition assay) (n (HI titer = 2^n)) [18] of 5.5. For the same binder, the HI titer (hemagglutinin inhibition assay) (n (HI titer = 2^n)) [19] was 3, the HI titer (hemagglutinin inhibition assay) (n (HI titer = 2^n)) [20] was 5.5 and the HI titer (hemagglutinin inhibition assay) (n (HI titer = 2^n)) [21] was 6. The HI titer (hemagglutinin inhibition assay) (n (HI titer = 2^n)) [22] was 2 and the HI titer (hemagglutinin inhibition assay) (n (HI titer = 2^n)) [23] was 3.
